This note sets out measurements from article PMC9116965 (iScience, 2022).

In assay [1] the target is T1, SARS-CoV-2 WT RBD protein (SARS-CoV-2 (WT), UniProt P0DTC2). The experiment in a line: ELISA. (ELISA stands for enzyme-linked immunosorbent assay.)
A further assay deals with SARS-CoV RBD protein (Severe acute respiratory syndrome …, UniProt P59594). Briefly: cell-based or functional assay.
The target of assay [2] is T1, SARS-CoV-2 WT RBD protein. The experiment in a line: SPR.

B1: S2A4 (antibody, V domains shown)
VH: EVQLVESGGGLVQPGGSLRLSCAASGFTFSSYWMNWVRQAPGKGLEWVANIKQDGSEKYYVDSVKGRFTISRDNAKNSLFLQMNSLRAEDTAVYYCARVWWLRGSFDYWGQGTLVTVSS
VL: NFMLTQPHSVSESPGKTVTISCTGSSGSIASNYVQWYQQRPGSAPTTVIYEDNQRPSGVPDRFSGSIDSSSNSASLTISGLKTEDEADYYCQSYDSSNHVVFGGGTKLTVL
For the molecule B1, the binding result in assay [1] is recorded as “binds”.

B2: EY6A (antibody, V domains shown)
VH: EVQLVESGGGVVQPGRSLRLSCAASAFTFSSYDMHWVRQAPGKGLEWVAVISYDGSNKYYADSVKGRFTISRDNSKNTLYLQMNSLRAEDTAVYYCAKDGGKLWVYYFDYWGQGTLVTVSS
VL: not shown
As to B2, the binding result in assay [1] is given as “binds”.

B3: STS165 (full-length IgG form) (antibody, V domains shown)
VH: EVQLVESGGGVVRPGGSLRLSCAASGFTFDDYGMSWVRQAPGKGLEWVSGINWNGGSTGYADSVKGRFTISRDNAKNSLYLQMNSLRAEDTALYHCARVGYCGGDCYSLSLAGFPDYWGQGTLVTVSS
VL: not shown
Regarding B3, the “pseudovirus neutralisation of SARS-CoV, IC50 (HEK-293T-hACE2 cells, luciferase)” value with SARS-CoV RBD protein was found to be 2.09 µg/mL.

B4: STS165 Fab form (Fab, V domains shown)
VH: B3 VH
VL: not shown
In the case of B4, the “fold decrease of binding affinity against the IgG form” value in assay [2] is more than 50 fold.

B5: H014 (antibody, V domains shown)
VH: EVQLVQSGAEVKKPGATVKISCKVSGYSFSNYYIHWVKQAPGKSLEWIGYIDPFNGGTSDNLKFKGAATLTADTSTDTAYMELSSLRSEDTAVYYCARSEYDPYYVMDYWGQGTTVTVSS
VL: IVLTQSPFQSVSPKEKVTITCRASQSISSNLHWYQQKPDQSPKLLIKYASQSISGIPSRFSGSGSGTDFTLTINSLEAEDFGIYFCQQTNFWPYIFGQGTKLEIL
On to B5, for which the binding result in assay [1] is listed as “binds”.
